Assay results from the supplement of paper PMC10567573.

B1: ZNF649 (parent)
chain: LTEHKRIHTGKKPHVCSLCGKAFY
B2: TMEM175 (parent)
chain: ALLHQAETLQPSVWFGGREHVLMF

Variants of: B1
Test: protein stability index of a GFP-peptide fusion (GPS, HEK-293T) (PSI 1-6); higher = more stable
Details: c terminus: a fixed tail appended
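Also: lentivirally expressed fusions sorted by FACS into six bins by GFP to DsRed ratio, PSI derived from sequencing read proportions per bin multiplied by bin number.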

Protein stability index: each site, then its substitutions
T2: C 3.94, D 3.12, W 2, Y 2.31, N 2.32, I 2.04, H 2.46, V 2.27, F 1.7, A 2.57, Q 2.58, R 2.78, E 3.01, M 2.16, L 2.09, K 2.26, P 2.32, G 2.25, S 3
H4: A 2.22, C 2.78, L 2.11, F 2.33, E 3.02, D 2.9, I 2.19, G 2.4, K 2.28
E3: H 1.68, K 2.93, C 2.38, S 2.59, A 2.47, W 1.71, R 1.86, M 1.89, N 2.22, F 2.31, D 2.71, L 1.15, G 1.79, P 2.45, V 2.23, Q 2.32, I 1.96, T 1.67, Y 2.89
L1: V 2.57, Y 3.44, M 2.3, W 2.17, H 2.97, I 2.18, N 2.81, E 2.87, R 3.27, S 2.81, P 3.05, T 2.58, C 3.22, K 3.22, D 3.45, Q 3.02, G 3.19, F 2.18, A 3.24

Variants of: B2
Test: as above
Details: c terminus: a fixed tail appended

Protein stability index of substitutions, site by site:
H20: T 3.65, R 4.2, G 1.74, D 1.29, E 1.6, M 3.07, S 2.21, Q 1.44, I 2.97, P 3.07, N 2.48
F24: K 2.5, M 3.11, W 2.13, N 3.21, P 1.54, D 2.69, L 2.21, R 2.56, S 2.56, T 2, G 1.47, H 2.15, E 2.15, Q 2.4
E19: L 2.74, C 3.88, F 1.97, W 2.92, Y 1.81, H 2.74, A 2.27, N 1.42, S 2.2, P 2.37
L22: N 2.19, A 1.1, E 2.09, S 2.06, C 3.13, G 1.77, V 3.06, Q 1.9, H 2.68, P 2.05, Y 2.94, F 2.44, K 1.94, T 1.78, R 1.93, M 2.03
V21: L 2.41, Q 1.69, E 1.53, Y 1.7, H 2.89, R 2.18, K 2.1, P 2.11, S 1.52, A 1.42, I 1.53, C 2.73, D 1.77, G 2.89, M 2.55, N 2.02, W 1.57
G17: Y 1.58
M23: I 2.59, V 1.27, H 2.39, L 3.66, E 3.67, G 3.51, N 1.58, P 1.35, K 1.74, Q 1.84, F 1.67, R 1.03, A 1.2, D 1.04
R18: F 2.29, P 1.71, K 3.39, H 2.17, S 1.15, T 2.46, E 1.76, C 3.1, G 2.08, I 3.13, Q 2.33, N 3.11, W 3.12, V 1.44, A 2.59, D 1.93, L 3.03, M 2.03
